Molecular target: T1, purified α4β1 VLA4 integrin (UniProt P13612 34-1032; P05556 21-798)
T1 construct: Purified VLA4 coated on the plate at 1 ug/ml; also called α4β1 integrin
Test: ELISA, Fab on plate-coated purified VLA4, goat anti-human IgG HRP detection
Experimental: In this assay, 1 ug/ml of purified VLA4 (in 50 mM NaHCO₃ buffer (pH 9.2) containing 10 ug/ml BSA) was coated on a 96-well (100 ul/well) Corning Easy-wash plate and incubated overnight at 4° C. Following incubation, the plate was blocked with 150 ul/well of blocking buffer (50 mM Tris-HCl pH7.5, 150 mM NaCl and 2% Dry Milk) for 60 minutes at room temperature. The plated was then washed four times with TBS Washing buffer (50 mM Tris-HCl pH 7.5, 150 mM NaCl, 0.05% Tween-20). Dilutions of each HP1/2 Fab to be tested were prepared in binding buffer (TBS buffer containing 2% Dry Milk) and 100 ul of each dilution was added to the designated wells (100 ul of TBS assay buffer was used as blank control). The plate was then incubated for 60 minutes at room temperature, and then washed four times with TBS Washing buffer. The detection antibody (goat anti-human IgG HRP conjugate) was added at 100 ul/well and the plated was again incubated at room temperature for 60 minutes and washed four times with TBS Washing buffer beforeadding 100 ul/well HRP Substrate buffer and incubating another 30-60 minutes. To stop the reaction, 100 ul of 1 NH2SO4 was added to each well. The plate was read in a Molecular Devices ELISA plate reader at […], and the data was analyzed using Softmax software and EC50 values calculated by GraphPad Prism 4. The EC50 values observed for the test Fab fragments with VH and VL domains are tabulated in […]

T1 sequence (P13612 34-1032, form in doubt, chain 1 of 2): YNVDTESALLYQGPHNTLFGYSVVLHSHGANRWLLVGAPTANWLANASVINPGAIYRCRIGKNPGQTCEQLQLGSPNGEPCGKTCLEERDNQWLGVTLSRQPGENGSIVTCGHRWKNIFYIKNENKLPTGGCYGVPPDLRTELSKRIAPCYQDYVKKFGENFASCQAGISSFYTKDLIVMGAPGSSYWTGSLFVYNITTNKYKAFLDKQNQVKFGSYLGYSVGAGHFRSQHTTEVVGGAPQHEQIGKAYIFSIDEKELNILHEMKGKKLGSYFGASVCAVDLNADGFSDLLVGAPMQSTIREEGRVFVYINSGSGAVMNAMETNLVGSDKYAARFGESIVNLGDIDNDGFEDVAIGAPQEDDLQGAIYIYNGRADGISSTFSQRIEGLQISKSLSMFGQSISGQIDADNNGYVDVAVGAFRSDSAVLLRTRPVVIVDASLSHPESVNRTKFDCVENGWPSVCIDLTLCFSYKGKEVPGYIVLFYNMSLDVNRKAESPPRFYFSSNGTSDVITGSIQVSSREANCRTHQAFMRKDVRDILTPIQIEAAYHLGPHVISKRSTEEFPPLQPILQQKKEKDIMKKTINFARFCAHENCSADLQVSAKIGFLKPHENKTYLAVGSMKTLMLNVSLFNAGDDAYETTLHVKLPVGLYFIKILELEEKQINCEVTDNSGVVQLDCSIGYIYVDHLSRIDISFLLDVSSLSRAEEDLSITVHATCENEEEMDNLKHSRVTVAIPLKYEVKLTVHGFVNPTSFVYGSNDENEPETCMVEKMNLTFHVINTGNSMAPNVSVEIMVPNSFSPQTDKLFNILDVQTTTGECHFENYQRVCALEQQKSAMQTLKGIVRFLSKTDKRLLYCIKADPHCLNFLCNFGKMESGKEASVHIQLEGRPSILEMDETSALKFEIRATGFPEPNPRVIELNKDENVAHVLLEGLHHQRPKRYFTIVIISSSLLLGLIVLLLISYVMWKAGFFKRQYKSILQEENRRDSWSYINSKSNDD
T1 sequence (P05556 21-798, form in doubt, chain 2 of 2): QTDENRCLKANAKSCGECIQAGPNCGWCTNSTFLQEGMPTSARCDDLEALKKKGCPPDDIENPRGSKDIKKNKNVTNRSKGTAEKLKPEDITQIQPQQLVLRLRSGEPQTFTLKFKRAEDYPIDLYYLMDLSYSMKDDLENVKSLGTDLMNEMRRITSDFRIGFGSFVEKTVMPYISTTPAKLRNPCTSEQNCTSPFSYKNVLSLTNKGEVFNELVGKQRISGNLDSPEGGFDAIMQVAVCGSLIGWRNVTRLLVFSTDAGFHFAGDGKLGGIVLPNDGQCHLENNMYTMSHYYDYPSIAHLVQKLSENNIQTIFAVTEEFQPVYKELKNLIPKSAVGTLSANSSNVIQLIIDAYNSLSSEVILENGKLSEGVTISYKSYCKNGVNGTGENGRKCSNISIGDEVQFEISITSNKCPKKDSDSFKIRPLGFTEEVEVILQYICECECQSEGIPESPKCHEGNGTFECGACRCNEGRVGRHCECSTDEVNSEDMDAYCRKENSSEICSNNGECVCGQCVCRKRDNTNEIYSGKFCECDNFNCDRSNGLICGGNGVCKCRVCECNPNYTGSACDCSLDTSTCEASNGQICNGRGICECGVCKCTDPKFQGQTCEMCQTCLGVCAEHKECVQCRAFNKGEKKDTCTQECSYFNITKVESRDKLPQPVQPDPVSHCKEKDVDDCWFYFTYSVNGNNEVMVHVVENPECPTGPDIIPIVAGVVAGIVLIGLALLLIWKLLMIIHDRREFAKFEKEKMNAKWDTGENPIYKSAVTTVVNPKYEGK

Binder	EC50
Chimeric HP1/2 Fab (murine VH and VL domains) (Fab, V domains shown, Fab fragment; Constant parts (CH1, CL) are not specified; detection was with goat anti-human IgG HRP conjugate; also called chimeric Fab) VH: EVQLQQSGAELVKPGASVKLSCTASGFNIKDTYMHWVKQRPEQGLEWIGRIDPASGDTKYDPKFQVKATITADTSSNTAWLQLSSLTSEDTAVYYCADGMWVSTGYALDFWGQGTTVTVSS VL: SIVMTQTPKFLLVSAGDRVTITCKASQSVTNDVAWYQQKPGQSPKLLIYYASNRYTGVPDRFTGSGYGTDFTFTISTVQAEDLAVYFCQQDYSSPYTFGGGTKLEIK	0.052 nM
Humanized HP1/2 Fab V24A_T32V (Fab, V domains shown, Fab fragment; Constant parts are not specified) VH: EVQLVQSGAEVKKPGATVKISCKASGFNIKDVYMHWVQQAPGKGLEWMGRIDPASGDTKYDPKFQVRVTITADTSTDTAYMELSSLRSEDTAVYYCATGMWVSTGYALDFWGQGTLVTVSS VL: DIVMTQSPDSLAVSLGERATINCKASQSVTNDVAWYQQKPGQPPKLLIYYASNRYTGVPDRFSGSGSGTDFTLTISSLQAEDVAVYYCQQDYSSPYTFGQGTKVEIK	0.066 nM
Humanized HP1/2 Fab V24S_F27Y_T32V (Fab, V domains shown, Fab fragment; Constant parts are not specified) VH: EVQLVQSGAEVKKPGATVKISCKSSGYNIKDVYMHWVQQAPGKGLEWMGRIDPASGDTKYDPKFQVRVTITADTSTDTAYMELSSLRSEDTAVYYCATGMWVSTGYALDFWGQGTLVTVSS VL: DIVMTQSPDSLAVSLGERATINCKASQSVTNDVAWYQQKPGQPPKLLIYYASNRYTGVPDRFSGSGSGTDFTLTISSLQAEDVAVYYCQQDYSSPYTFGQGTKVEIK	0.032 nM
Humanized HP1/2 Fab V24F_T32V (Fab, V domains shown, Fab fragment; Constant parts are not specified) VH: EVQLVQSGAEVKKPGATVKISCKFSGFNIKDVYMHWVQQAPGKGLEWMGRIDPASGDTKYDPKFQVRVTITADTSTDTAYMELSSLRSEDTAVYYCATGMWVSTGYALDFWGQGTLVTVSS VL: DIVMTQSPDSLAVSLGERATINCKASQSVTNDVAWYQQKPGQPPKLLIYYASNRYTGVPDRFSGSGSGTDFTLTISSLQAEDVAVYYCQQDYSSPYTFGQGTKVEIK	0.13 nM
Humanized HP1/2 Fab F27Y_T32V_M96L (VH SEQ ID NO: 25) (Fab, V domains shown, Fab fragment; Constant parts are not specified) VH: EVQLVQSGAEVKKPGATVKISCKVSGKNIKDVYMHWVQQAPGKGLEWMGRIDPASGDTKYDPKFQVRVTITADTSTDTAYMELSSLRSEDTAVYYCATGLWVSTGYALDFWGQGTLVTVSS VL: DIVMTQSPDSLAVSLGERATINCKASQSVTNDVAWYQQKPGQPPKLLIYYASNRYTGVPDRFSGSGSGTDFTLTISSLQAEDVAVYYCQQDYSSPYTFGQGTKVEIK	0.14 nM
HP1/2 Fab, straight CDR graft (VH CDR graft paired with VL CDR graft) (Fab, V domains shown, Fab fragment; Constant parts are not specified) VH: EVQLVQSGAEVKKPGATVKISCKVSGFNIKDTYMHWVQQAPGKGLEWMGRIDPASGDTKYDPKFQVRVTITADTSTDTAYMELSSLRSEDTAVYYCATGMWVSTGYALDFWGQGTLVTVSS VL: DIVMTQSPDSLAVSLGERATINCKASQSVTNDVAWYQQKPGQPPKLLIYYASNRYTGVPDRFSGSGSGTDFTLTISSLQAEDVAVYYCQQDYSSPYTFGQGTKVEIK	1.1 nM

From patent US20100093980A1 (Biogen, published 2010)
